Data reported in patent US20240254204A1 (NATIONAL UNIVERSITY OF SINGAPORE, published 2024).
Values joined by “and” are separate entries in the source; they are usually repeats but may differ in a detail not shown here. Equal entries are not always repeated.

Experiments:
Experiment in all cases: cell-based or functional assay
[1] = biological target: SARS-COV-2 Alpha full-length spike (SARS-CoV-2 Alpha)
[2] = biological target: SARS-COV-2 Delta full-length spike (SARS-CoV-2 Delta)
[3] = biological target: SARS-COV-2 Beta full-length spike (SARS-CoV-2 Beta)
[4] = biological target: SARS-COV-2 Gamma full-length spike (SARS-CoV-2 Gamma)

Measured: pseudovirus neutralization NT50

B1: Antibody 11 (SS6V11-E7) (antibody, V domains shown)
VH: QVQLQESGPGLVKPSETLSLTCTVSGGFIGPHYWSWVRQPPGKGLEWIGYIYISGSTNYNPSLKSRLTISVDMSKSQFSLTLSSATAADTAVYYCARGGGYLETGPFEYWGQGTLVTVSS
VL: DIVMTQSPLSLPVTPGEPASISCRSSQSLLQNNGYNYLAWYLQKPGQSPQLLIYLSSTRASGVPDRFSGSGSGTDFTLKISRVEAEDVGVYYCMQSLQIPGTFGQGTRLEIK
< 10 ng/ml and < 0.067 nM: all assays above

B2: Antibody 13 (SS6V13-F1) (antibody, V domains shown)
VH: QVQLQESGPGLVKPSETLSLTCSVSGVSILGSYWGWIRQPPGTGLQWIGYIYFSENTNYNPSLQSRVTMSLDTSKNLLSLKLSSVTAADTAVYYCARGGGYLETGPFDSWGQGTLVTVSS
VL: DIVMTQSPLSLPVTPGEPASISCRSSQGLVQSNGYNYLAWYLQKPGQSPQLLIYLGSNRASGVPDRFSGSGSGTDFTLKISRVEAEDVGVYYCMQGLQTPGTFGQGTRLEIK
< 10 ng/ml and < 0.067 nM: all assays above

B3: Antibody 20 (SS6V20-F5) (antibody, V domains shown)
VH: QVQLQESGPGLVKPSETLSLTCTVSGGSIIGYYWSWIRQPPGKGLEWIGYIYFSANTNYNPSLKSRVTMSVDMSKKQFSLKLRSVTAADTAVYYCARGGGYLETGPLDFWGQGILVTVSS
VL: DIVMTQSPLSLPVTPGEPASISCRSSQSLMQLNGYNYLAWYLQRPGQSPQLLIYLGSTRASGVPDRFSGSGSGTDFTLKITRVEAEDVGVYYCMQGLQIPGTFGQGTRLEIK
< 10 ng/ml and < 0.067 nM: all assays above
